Laboratory results: patent US20190119379A1 (BAYLOR COLLEGE OF MEDICINE, published 2019)

Target: T1, human CD47 on OV10 315 cells (human, UniProt Q08722 19-323)
T1 construct: whole, on cells
Test: FACS for Fc on YFP-negative OV10 315 cells 24 h after infection with SIRPα-Fc-VV

T1 sequence (Q08722 19-323): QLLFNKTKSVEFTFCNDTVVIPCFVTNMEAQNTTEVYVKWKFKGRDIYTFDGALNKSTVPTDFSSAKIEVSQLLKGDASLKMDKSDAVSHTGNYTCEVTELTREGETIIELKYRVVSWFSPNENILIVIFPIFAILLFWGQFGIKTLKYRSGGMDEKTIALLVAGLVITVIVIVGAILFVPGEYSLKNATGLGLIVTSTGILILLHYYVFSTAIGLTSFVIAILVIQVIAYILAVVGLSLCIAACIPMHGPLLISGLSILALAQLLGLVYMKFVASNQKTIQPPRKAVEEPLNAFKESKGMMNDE

B1: SIRPα-IgG4 Fc with derivative (CV1) of SIRPα ectodomain (Fc fusion)
chain: EEELQIIQPDKSVLVAAGETATLRCTITSLFPVGPIQWFRGAGPGRVLIYNQRQGPFPRVTTVSDTTKRNNMDFSIRIGNITPADAGTYYCIKFRKGSPDDVEFKSGAGTELSVRAKPSAAAPPCPPCPAPEFLGGPSVFLFPPKPKDTLMISRTPEVTCVVVDVSQEDPEVQFNWYVDGVEVHNAKTKPREEQFNSTYRVVSVLTVLHQDWLNGKEYKCKVSNKGLPSSIEKTISKAKGQPREPQVYTLPPSQEEMTKNQVSLTCLVKGFYPSDIAVEWESNGQPENNYKTTPPVLDSDGSFFLYSRLTVDKSRWQEGNVFSCSVMHEALHNHYTQKSLSLSPGK
notes: Secreted by tumor cells transduced with the lentiviral vector pCDH.CMV.SIRPα-Fc.EF1.GFPpuro or infected with SIRPα-Fc-VV; It was never purified; also called SIRPα-Fc; SIRPα-FC
B1: binds.
